Where no end group is shown, it is not given here. The star is where a group is joined. FITC = O=C1OC2(c3ccc(O)cc3Oc3cc(O)ccc32)c2ccc(NC(=S)*)cc21
What was measured:
Assay type in all cases: biochemical
protein kinase A = protein kinase A (Homo sapiens, UniProt P17612); assay: Protein kinase A inhibitor assay with optical probe; conditions: inhibitor 10 μM, ATP 10 μM
Experimental: […] After one hour incubation at 30 C, chymotrypsin to a final concentration of 0.8 nM was added and the 460/530 ratio was determined after one hour, as described above (Example 6).

PTP-B = assay: Inhibition of protein tyrosine phosphatase with phosphorylated Src-2 probe; conditions: read-out: apparent IC50
Experimental: (§1) Optical probes were first phosphorylated to completion as described above, and samples of phosphorylated optical probe, at a final concentration of 500 nM, were incubated with various concentrations of protein tyrosine phosphatase-B (PTP-B) agarose (Upstate Biotechnology) for 20 minutes at 30 C in 0.1×PBS. At the required time interval, PTP-B-agarose was removed by a brief microfuige spin prior to transfer to 96-well Cytofluor plates for fluorescence measurements, after addition of chymotrypsin (100 nM), as described in Example 1.

Src kinase = molecular target: T1, Src kinase (Homo sapiens, UniProt P12931); assay: Src kinase phosphorylation of optical probes; conditions: fluorescence after protease incubation; read-out: apparent Km with respect to the Src kinase
T1 construct: purchased Upstate Biotechnology

[1] = tested on: protein tyrosine phosphatase-B (PTP-B); assay: Dephosphorylation of phosphorylated optical probes by PTP-B; conditions: for Fluorescence emission ratio of peptide after protease treatment: phosphorylated probe 500 nM, 20 minutes at 30 C
Experimental: as §1
In this experiment, the relative rates of dephosphorylation of the phosphorylated Src-2-specific substrate (SEQ. ID. NO: 29) and an abl-specific (SEQ. I.D. No. 4) substrate optical probes by the protein tyrosine phosphatase PTP-B were compared.

chymotrypsin = chymotrypsin (Bos taurus, UniProt P00766); assay: Chymotrypsin cleavage of optical probe with or without protein kinase A phosphorylation; conditions: for 460/530 emission ratio, Non-phosphorylated Optical probe / 460/530 emission ratio, Phosphorylated Optical probe: 0.8 nM chymotrypsin
Experimental: ID. NO: 12, below, (the P′1, position with respect to the protease cleavage site of chymotrypsin).
The peptide ([…], SEQ. ID. NO: 12) was labeled with fluorescein isothiocyanate at the N-termninus and 7-hydroxycoumarin-3-carboxamide at the C-terminus as described above. To determine the relative proteolytic activity of the phosphorylated and non-phosphorylated optical probes, samples of both were prepared. […] Mock kinase reactions with no ATP were used to create non-phosphorylated, control samples. In both cases, the samples were diluted 10 fold with buffer containing 50 mM HEPES, pH 7.5, 10 mM CaCl2 and 0.01% Brij-35, and incubated with 0.8 nM chymotrypsin.

protein kinase C = assay: Proteolytic susceptibility of optical probe after protein kinase C phosphorylation; conditions: chymotrypsin
Excerpt: To measure protein kinase C activity using the optical probes of the present invention, a peptide ([…], SEQ. ID. NO: 12) was designed in which phosphorylation by protein kinase C occurred at the P′1 position (underlined in SEQ. ID. NO: 12) with respect to the scissile bond cleaved by chymotrypsin. This enabled an optimal protein kinase C recognition motif to placed within the optical probe sequence, and to create a site of phosphorylation that modulated the proteolytic sensitivity of the substrate towards chymotrypsin.

caspase-3 = molecular target: T2, caspase-3 (Homo sapiens, UniProt P42574); assay: Caspase-3 cleavage of optical probe with or without ERK2 phosphorylation; conditions: 30 minutes exposure to caspase-3
T2 construct: purchased Upstate Biotechnology
T2 sequence (P42574 29-175 limits assumed): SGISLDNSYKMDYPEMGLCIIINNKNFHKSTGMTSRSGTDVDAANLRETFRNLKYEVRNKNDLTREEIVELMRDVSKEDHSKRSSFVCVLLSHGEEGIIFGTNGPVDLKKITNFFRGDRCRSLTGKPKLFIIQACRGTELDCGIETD
T2 sequence (P42574 176-277 limits assumed): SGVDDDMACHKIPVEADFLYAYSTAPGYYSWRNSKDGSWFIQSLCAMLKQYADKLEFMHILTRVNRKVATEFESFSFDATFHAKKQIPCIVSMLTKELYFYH
Experimental: To determine how phosphorylation on serine in the optical probe (SEQ. ID. NO: 24) effected the rate of caspase-3 cleavage, samples of phosphorylated and control (non-phosphorylated) optical probes were treated with the protease caspase-3. Phosphorylated samples of the optical probe (70 pmol) were prepared by 8 hour to overnight incubation with ERK2 kinase (Biomol). Reactions were typically performed in 10 μl using 200-500 μM ATP and 50-200 ng ERK2 in a buffer consisting of 50 mM HEPES, pH 7.5, 10 mM MgCl2, 1 mM EGTA, and 1 mM DTT at 30° C. Mock kinase reactions were performed for preparation of control (non-phosphorylated) optical probe as above, except ATP was omitted. To monitor cleavage of the optical probes by caspase-3, 10 μL volumes of phosphorylated and control (non-phosphorylated) samples of the optical probe were placed in individual wells of a 96-well multiwell plate. Caspase-3 cleavage reactions were carried out in these samples after dilution to 100 μL in a buffer consisting of 100 mM HEPES, pH 7.5, 5 mM DTT, 0.5 mM EDTA, 20% glycerol, 0.01% Brij-35, and 50-100 ng caspase-3 (Upstate Biotechnology), and incubated at room temperature. Emission readings were taken at 5 minute intervals during the course of the caspase-3 incubation using a Cytofluor plate reader as described in Example 1.

Compound: O=S(=O)(NCCNC/C=C/c1ccc(Br)cc1)c1cccc2cnccc12 [H-89]
- inhibition of protein kinase A activity (protein kinase A): almost complete inhibition

Compound: [O]=[V]([OH])([OH])[OH] [Ortho-vanadate, orthovanadate]
- IC50 (PTP-B): 420 nM

Compound: GEEEIYGVIEK [Src-2, fluorescently labeled optical probe for Src kinase; phosphorylated form is the PTP-B substrate]
- Km (Src kinase): 19 µM
- Fluorescence emission ratio of peptide after protease treatment ([1]; Log concentration of PTP-B −7.7): 17.7
- Fluorescence emission ratio of peptide after protease treatment ([1]; Log concentration of PTP-B −8.7): 17.6
- Fluorescence emission ratio of peptide after protease treatment ([1]; Log concentration of PTP-B −9.7): 15.8
- Fluorescence emission ratio of peptide after protease treatment ([1]; Log concentration of PTP-B −10.7): 5.40
- Fluorescence emission ratio of peptide after protease treatment ([1]; Log concentration of PTP-B −11.7): 1.99
- Fluorescence emission ratio of peptide after protease treatment ([1]; Log concentration of PTP-B −12.7): 1.75
- Fluorescence emission ratio of peptide after protease treatment ([1]; Log concentration of PTP-B −13.7): 1.62
- Fluorescence emission ratio of peptide after protease treatment ([1]; Log concentration of PTP-B −14.7): 1.60
- kcat ([1]; phosphorylated probe, PTP-B): 79 s⁻¹
- Km ([1]; phosphorylated probe, PTP-B, Michaelis-Menten plot, read-out: apparent Km): 1.3 µM

Compound: RRRKFSLRRKA ({FITC}-RRRKFSLRRKA; not fully specified (residue 6, C-terminus)) [SEQ. ID. NO: 12, peptide labeled with fluorescein isothiocyanate at N-terminus and 7-hydroxycoumarin-3-carboxamide at C-terminus; protein kinase A and C probe]
- 460/530 emission ratio, Non-phosphorylated Optical probe (chymotrypsin; time of cleavage 0 minutes): 0.34
- 460/530 emission ratio, Phosphorylated Optical probe (chymotrypsin; time of cleavage 0 minutes): 0.33
- 460/530 emission ratio, Non-phosphorylated Optical probe (chymotrypsin; time of cleavage 10 minutes): 3.15
- 460/530 emission ratio, Phosphorylated Optical probe (chymotrypsin; time of cleavage 10 minutes): 0.54
- 460/530 emission ratio, Non-phosphorylated Optical probe (chymotrypsin; time of cleavage 20 minutes): 6.71
- 460/530 emission ratio, Phosphorylated Optical probe (chymotrypsin; time of cleavage 20 minutes): 0.78
- 460/530 emission ratio, Phosphorylated Optical probe (chymotrypsin; time of cleavage 30 minutes): 1.02
- 460/530 emission ratio, Phosphorylated Optical probe (chymotrypsin; time of cleavage 40 minutes): 1.27
- 460/530 emission ratio, Non-phosphorylated Optical probe (chymotrypsin; time of cleavage 50 minutes): 13.34
- 460/530 emission ratio, Phosphorylated Optical probe (chymotrypsin; time of cleavage 50 minutes): 1.53
- 460/530 emission ratio, Phosphorylated Optical probe (chymotrypsin; time of cleavage 60 minutes): 1.78
- Fold difference in ratios (chymotrypsin; time of cleavage 0 minutes): 1.0
- Fold difference in ratios (chymotrypsin; time of cleavage 10 minutes): 5.8
- Fold difference in ratios (chymotrypsin; time of cleavage 20 minutes): 8.6
- Fold difference in ratios (chymotrypsin; time of cleavage 30 minutes): 9.7
- Fold difference in ratios (chymotrypsin; time of cleavage 40 minutes): 9.5
- Fold difference in ratios (chymotrypsin; time of cleavage 50 minutes): 8.7
- Fold difference in ratios (chymotrypsin; time of cleavage 60 minutes): 7.9
- effect of phosphorylation by protein kinase C on proteolytic susceptibility of the substrate (protein kinase C): significantly modulated

Compound: RVDEPFSPGEK (Optical probe with p-Ser in P′(sub 1)) [SEQ. ID. NO: 24, ERK kinase specific optical probe cleaved by caspase-3]
- maximal difference in emission ratio of phosphorylated and non-phosphorylated optical probes (caspase-3): over a three fold difference

Reference: patent US6410255B1, “Optical probes and assays” (priority 1999, dated 2002)
